# Assay results taken from patent publication US20200079833A1 (AstraZeneca / MedImmune, published 2020).
# Starred links: 1 amine or outer side, 2 acyl side, 3 side chain; linkers in the order of their positions; H or OH if unused. Non-standard residues stand in square brackets, D forms with d. Groups on a side chain read outwards from the residue. Primed or numbered codes have the meaning given here. No end group written: not given here. *: point of attachment. Tyr(OMe) = COc1ccc(C[C@H](N[*:1])C(=O)[*:2])cc1; γGlu = O=C(O)[C@H](CCC(=O)[*:2])N[*:1]; αMeF = C[C@](N)(Cc1ccccc1)C(=O)O; αMeK = C[C@](N)(CCCCN)C(=O)O; Lauroyl = CCCCCCCCCCCC(=O)*; αMeS = C[C@](N)(CO)C(=O)O; PEG2′ = not defined here; Aib = CC(C)(N)C(=O)O
# T1: glucose-dependent insulinotropic peptide (gastric inhibitory polypeptide) receptor (GIPR), primary cAMP assay (human, UniProt P48546 22-466)
# T1 sequence (looked up): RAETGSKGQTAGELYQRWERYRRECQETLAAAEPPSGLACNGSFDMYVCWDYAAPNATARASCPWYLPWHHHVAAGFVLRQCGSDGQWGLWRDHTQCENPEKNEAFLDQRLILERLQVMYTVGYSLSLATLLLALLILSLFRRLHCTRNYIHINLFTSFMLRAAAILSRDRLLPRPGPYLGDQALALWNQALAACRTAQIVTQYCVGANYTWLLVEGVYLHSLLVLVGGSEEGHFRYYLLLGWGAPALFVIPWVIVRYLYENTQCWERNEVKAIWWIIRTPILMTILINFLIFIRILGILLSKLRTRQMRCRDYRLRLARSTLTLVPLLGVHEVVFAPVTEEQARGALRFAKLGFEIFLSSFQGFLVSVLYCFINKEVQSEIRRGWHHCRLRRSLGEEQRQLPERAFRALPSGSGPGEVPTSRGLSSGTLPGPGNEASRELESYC
# T2: GLP-1R in the INS1e assay (UniProt P32301 22-463, limits assumed)
# T2 sequence (looked up): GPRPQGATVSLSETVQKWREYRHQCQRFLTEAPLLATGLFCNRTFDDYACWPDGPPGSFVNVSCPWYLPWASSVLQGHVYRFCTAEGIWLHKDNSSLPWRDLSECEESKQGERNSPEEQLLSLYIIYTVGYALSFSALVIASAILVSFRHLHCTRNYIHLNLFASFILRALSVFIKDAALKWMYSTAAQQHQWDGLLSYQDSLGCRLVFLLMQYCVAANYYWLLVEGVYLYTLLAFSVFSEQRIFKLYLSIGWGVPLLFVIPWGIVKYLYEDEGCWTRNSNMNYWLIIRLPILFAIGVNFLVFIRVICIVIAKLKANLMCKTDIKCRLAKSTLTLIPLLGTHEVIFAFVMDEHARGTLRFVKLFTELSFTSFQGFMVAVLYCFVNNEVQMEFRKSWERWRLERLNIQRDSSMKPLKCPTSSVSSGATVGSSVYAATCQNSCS
# Molecular target: GLP-1 receptor (GLP-1R), primary cAMP assay (human, UniProt P43220 24-463)
# Assay: cell-based or functional assay
Binder,Primary assay EC50 (cAMP) Mean [pM],"Primary assay EC50 (cAMP), n1 [pM]","Primary assay EC50 (cAMP), n2 [pM]"
H[Aib]EGS[αMeF]TSDV[αMeS]SK([PEG2′-PEG2′-γGlu-Lauroyl])LEGEAA[αMeK]EFIAK([PEG2′-PEG2′-γGlu-Lauroyl])VVEGG-NH2 [SEQ ID NO: 263],1.2,0.998,1.45
H[Aib]EGS[αMeF]TSDV[αMeS]SYK([PEG2′-PEG2′-γGlu-Lauroyl])EGEAA[αMeK]EFIK([PEG2′-PEG2′-γGlu-Lauroyl])WVVEGG-NH2 [SEQ ID NO: 268],4.8,4.46,5.05
H[Aib]EGS[αMeF]TSDV[αMeS]SK([PEG2′-PEG2′-γGlu-Lauroyl])LEGEAA[αMeK]E[Tyr(OMe)]IAK([PEG2′-PEG2′-γGlu-Lauroyl])VVEGG-NH2 [SEQ ID NO: 406],2.3,2.19,2.31

# The remaining lines, values ahead:
Primary assay EC50 (cAMP) Mean [pM],"Primary assay EC50 (cAMP), n1 [pM]","Primary assay EC50 (cAMP), n2 [pM]",Binder
5.4,6.73,4.14,H[Aib]EGS[αMeF]TSDV[αMeS]SK([PEG2′-PEG2′-γGlu-Lauroyl])LEGEAA[αMeK]EFIK([PEG2′-PEG2′-γGlu-Lauroyl])WVVEGG-NH2 [SEQ ID NO: 262]
20.6,23.4,17.7,H[Aib]EGS[αMeF]TSDVSK([PEG2′-PEG2′-γGlu-Lauroyl])YLEGEAA[αMeK]EFIAWK([PEG2′-PEG2′-γGlu-Lauroyl])VEGG-NH2 [SEQ ID NO: 253]
8.4,4.36,12.4,H[Aib]EGS[αMeF]TSDK([PEG2′-PEG2′-γGlu-Lauroyl])SSYLEGEAA[αMeK]EFIAK([PEG2′-PEG2′-γGlu-Lauroyl])VVEGG-NH2 [SEQ ID NO: 257]
4.6,4.01,5.24,H[Aib]EGS[αMeF]TSDV[αMeS]SYK([PEG2′-PEG2′-γGlu-Lauroyl])EGEAA[αMeK]EFIAK([PEG2′-PEG2′-γGlu-Lauroyl])VVEGG-NH2 [SEQ ID NO: 269]

# Molecular target: glucagon receptor (GCGR), primary cAMP assay (human, UniProt P47871 26-477)
# Assay: cell-based or functional assay
# glucagon receptor (GCGR), primary cAMP assay, sequence (P47871 26-477): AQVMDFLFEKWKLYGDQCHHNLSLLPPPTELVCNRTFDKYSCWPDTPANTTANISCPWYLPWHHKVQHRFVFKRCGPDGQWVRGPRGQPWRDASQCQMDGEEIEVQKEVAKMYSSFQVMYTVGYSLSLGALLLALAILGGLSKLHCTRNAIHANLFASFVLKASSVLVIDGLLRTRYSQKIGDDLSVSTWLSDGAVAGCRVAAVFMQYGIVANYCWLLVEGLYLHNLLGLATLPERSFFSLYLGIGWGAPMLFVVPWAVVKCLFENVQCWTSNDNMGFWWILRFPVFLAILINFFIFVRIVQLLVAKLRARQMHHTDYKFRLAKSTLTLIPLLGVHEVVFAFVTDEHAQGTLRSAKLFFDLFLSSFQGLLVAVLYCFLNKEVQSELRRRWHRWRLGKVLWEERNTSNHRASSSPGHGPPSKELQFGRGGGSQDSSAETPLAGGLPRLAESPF
Binder,"Primary assay EC50 (cAMP), n1 [nM]","Primary assay EC50 (cAMP), n2 [nM]"
H[Aib]EGS[αMeF]TSDV[αMeS]SK([PEG2′-PEG2′-γGlu-Lauroyl])LEGEAA[αMeK]EFIAK([PEG2′-PEG2′-γGlu-Lauroyl])VVEGG-NH2 [SEQ ID NO: 263],21.5,21.5
H[Aib]EGS[αMeF]TSDV[αMeS]SYK([PEG2′-PEG2′-γGlu-Lauroyl])EGEAA[αMeK]EFIK([PEG2′-PEG2′-γGlu-Lauroyl])WVVEGG-NH2 [SEQ ID NO: 268],22.2,22.2
H[Aib]EGS[αMeF]TSDV[αMeS]SK([PEG2′-PEG2′-γGlu-Lauroyl])LEGEAA[αMeK]E[Tyr(OMe)]IAK([PEG2′-PEG2′-γGlu-Lauroyl])VVEGG-NH2 [SEQ ID NO: 406],21.5,21.5

# Now from value to binder:
"Primary assay EC50 (cAMP), n1 [nM]","Primary assay EC50 (cAMP), n2 [nM]",Binder
22.5,22.5,H[Aib]EGS[αMeF]TSDV[αMeS]SK([PEG2′-PEG2′-γGlu-Lauroyl])LEGEAA[αMeK]EFIK([PEG2′-PEG2′-γGlu-Lauroyl])WVVEGG-NH2 [SEQ ID NO: 262]
22.3,22.3,H[Aib]EGS[αMeF]TSDVSK([PEG2′-PEG2′-γGlu-Lauroyl])YLEGEAA[αMeK]EFIAWK([PEG2′-PEG2′-γGlu-Lauroyl])VEGG-NH2 [SEQ ID NO: 253]
22.8,22.8,H[Aib]EGS[αMeF]TSDK([PEG2′-PEG2′-γGlu-Lauroyl])SSYLEGEAA[αMeK]EFIAK([PEG2′-PEG2′-γGlu-Lauroyl])VVEGG-NH2 [SEQ ID NO: 257]
22.8,22.8,H[Aib]EGS[αMeF]TSDV[αMeS]SYK([PEG2′-PEG2′-γGlu-Lauroyl])EGEAA[αMeK]EFIAK([PEG2′-PEG2′-γGlu-Lauroyl])VVEGG-NH2 [SEQ ID NO: 269]

# Molecular target: T1, glucose-dependent insulinotropic …
# Assay: cell-based or functional assay
Binder,"Primary assay EC50 (cAMP), n1 [nM]","Primary assay EC50 (cAMP), n2 [nM]"
H[Aib]EGS[αMeF]TSDV[αMeS]SK([PEG2′-PEG2′-γGlu-Lauroyl])LEGEAA[αMeK]EFIAK([PEG2′-PEG2′-γGlu-Lauroyl])VVEGG-NH2 [SEQ ID NO: 263],21.5,21.5
H[Aib]EGS[αMeF]TSDV[αMeS]SYK([PEG2′-PEG2′-γGlu-Lauroyl])EGEAA[αMeK]EFIK([PEG2′-PEG2′-γGlu-Lauroyl])WVVEGG-NH2 [SEQ ID NO: 268],22.2,22.2
H[Aib]EGS[αMeF]TSDV[αMeS]SK([PEG2′-PEG2′-γGlu-Lauroyl])LEGEAA[αMeK]E[Tyr(OMe)]IAK([PEG2′-PEG2′-γGlu-Lauroyl])VVEGG-NH2 [SEQ ID NO: 406],21.5,21.5

# More lines, now with the values ahead:
"Primary assay EC50 (cAMP), n1 [nM]","Primary assay EC50 (cAMP), n2 [nM]",Binder
22.5,22.5,H[Aib]EGS[αMeF]TSDV[αMeS]SK([PEG2′-PEG2′-γGlu-Lauroyl])LEGEAA[αMeK]EFIK([PEG2′-PEG2′-γGlu-Lauroyl])WVVEGG-NH2 [SEQ ID NO: 262]
22.3,22.3,H[Aib]EGS[αMeF]TSDVSK([PEG2′-PEG2′-γGlu-Lauroyl])YLEGEAA[αMeK]EFIAWK([PEG2′-PEG2′-γGlu-Lauroyl])VEGG-NH2 [SEQ ID NO: 253]
22.8,22.8,H[Aib]EGS[αMeF]TSDK([PEG2′-PEG2′-γGlu-Lauroyl])SSYLEGEAA[αMeK]EFIAK([PEG2′-PEG2′-γGlu-Lauroyl])VVEGG-NH2 [SEQ ID NO: 257]
22.8,22.8,H[Aib]EGS[αMeF]TSDV[αMeS]SYK([PEG2′-PEG2′-γGlu-Lauroyl])EGEAA[αMeK]EFIAK([PEG2′-PEG2′-γGlu-Lauroyl])VVEGG-NH2 [SEQ ID NO: 269]

# Molecular target: T2, GLP-1R in the INS1e assay
# Assay: cell-based or functional assay
Binder,INS1e assay EC50 (cAMP) Mean [pM],INS1e assay EC50 (cAMP) n1 [pM],INS1e assay EC50 (cAMP) n2 [pM]
H[Aib]EGS[αMeF]TSDV[αMeS]SK([PEG2′-PEG2′-γGlu-Lauroyl])LEGEAA[αMeK]EFIAK([PEG2′-PEG2′-γGlu-Lauroyl])VVEGG-NH2 [SEQ ID NO: 263],132,120,144
H[Aib]EGS[αMeF]TSDV[αMeS]SYK([PEG2′-PEG2′-γGlu-Lauroyl])EGEAA[αMeK]EFIK([PEG2′-PEG2′-γGlu-Lauroyl])WVVEGG-NH2 [SEQ ID NO: 268],1160,1090,1230
H[Aib]EGS[αMeF]TSDV[αMeS]SK([PEG2′-PEG2′-γGlu-Lauroyl])LEGEAA[αMeK]E[Tyr(OMe)]IAK([PEG2′-PEG2′-γGlu-Lauroyl])VVEGG-NH2 [SEQ ID NO: 406],94,101,87.2

# Results, then the binder that gave them:
INS1e assay EC50 (cAMP) Mean [pM],INS1e assay EC50 (cAMP) n1 [pM],INS1e assay EC50 (cAMP) n2 [pM],Binder
552,700,403,H[Aib]EGS[αMeF]TSDV[αMeS]SK([PEG2′-PEG2′-γGlu-Lauroyl])LEGEAA[αMeK]EFIK([PEG2′-PEG2′-γGlu-Lauroyl])WVVEGG-NH2 [SEQ ID NO: 262]
2110,2080,2140,H[Aib]EGS[αMeF]TSDVSK([PEG2′-PEG2′-γGlu-Lauroyl])YLEGEAA[αMeK]EFIAWK([PEG2′-PEG2′-γGlu-Lauroyl])VEGG-NH2 [SEQ ID NO: 253]
577,812,342,H[Aib]EGS[αMeF]TSDK([PEG2′-PEG2′-γGlu-Lauroyl])SSYLEGEAA[αMeK]EFIAK([PEG2′-PEG2′-γGlu-Lauroyl])VVEGG-NH2 [SEQ ID NO: 257]
212,243,181,H[Aib]EGS[αMeF]TSDV[αMeS]SYK([PEG2′-PEG2′-γGlu-Lauroyl])EGEAA[αMeK]EFIAK([PEG2′-PEG2′-γGlu-Lauroyl])VVEGG-NH2 [SEQ ID NO: 269]
